Data published in the nanobody polyreactivity screen of Harvey et al. (2022).

Test: yeast display, Sf9 membrane polyspecificity reagent, FACS + sequencing; frameworks hold sequencing errors
Outline: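 After 36–48 hours of galactose induction, yeast (Saccharomyces cerevisiae BJ5465) displaying a synthetic nanobody library were stained at 4 °C for 1 hour with 10% biotinylated, detergent-solubilized Sf9 membrane reagent. Streptavidin microbeads enriched the stained cells before FACS sorting into low and high (top ~1%) gates on anti-HA and streptavidin fluorescence. Each clone's polyreactivity label reflects its gate of origin.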

Sequence | polyreactivity (PSR sort gate)
PVQLVESGGGLVQAGGSLRLSCAASGSTFYIYAMGWYRQAPGKERELVAAITSRGTITSYADSVKGRFTISRDNAKNTVYLQMNSLKPEDTAVYYCAADYWQDGIAYWYDYWGQGTQVTVSS | low polyreactivity
PVQLVESGGGLVQAGGSLRLSCAASGYTFSYNAMGWYRQAPGKERELVAAIYRGGRTYYADSVKGRFTISRDNAKNTVYLQMNSLKPEDTAVYYCAAKRWTTKNGFYEYPYYYWGQGTQVTVSS | high polyreactivity
PVQLVESGGGLVQAGGSLRLSCDAYGSIFAYNAMGWYRQAPGKERELVAAISVSDGITYYADSVKGRFTISRDNAKNTVYLQMISLKPEDTAVYYCPARTRGPSRAYDYWGQGTQGTVSS | low polyreactivity
PVQLVESRGGLVQAGGSLRLSCAASGIIFQRYAMGWYRQAPGKERELVAAINFSGGSTYYADSVKGRFTISRDNAKNTVYLQMNSLKPEDTSVYYCARAGRYAAYSPFYYWGQGTQVTVSS | high polyreactivity
QAQLQESGGSLLQAGGGLRLSCAASGYISVGSVMGWYRQAPSKERELVASIDQGANTNYADSVKGRYTISRDNAKNNVYLQMNSLKPEDSAVYYCATETTYILNYWGQGTQVTVSS | low polyreactivity
QAQLQESGGSLVQAGGGLRLSCAAIGYISVGSVMGWYRQAPSKERELVASIDQGANTNYADSVKGRFTISRDNAKNNVYLQMNSLKPEDTAVYYCATETTYILNYWGQGTQVTVSS | low polyreactivity
QAQLVDSGGGLVQEGGSLRLSCAASGLIFDANVMGSYRQAPGKERELVAAISWSGGRTYYADSVKGRFTISRDNAKNTVFFQMNSMNPEVTAVYYCAADTWPDMHDYWGQGTQVTVSS | low polyreactivity
QAQRVESGGGLGQAGGSLRLSCAASGRTFVRYTMGWYRQAPGKERELVAAISRSGGSTYYADSVKRRYTISRANAKNTVYLQLNSLKPEDTAVYYCAARRNAYHRDYYWGQGTQVTVSS | high polyreactivity
QDHLVESGGGLVQAGGSLRLICAANGRTFRRYAMGWYRQAPGKERELVATITSGGSTNYADSVKGRFTISRDNAKNTVYLQMNSLKPQDTAVYYCAARHGESHYDYWGQGTQVTVSS | low polyreactivity
QDHLVESGGGLVQAGGSLRLSCAASGRIFGGYVMGRYRQAPGTERELVAAINGGGGSTYYADSVKGRFTISRDNAKNTVYLQMNSLKPEDTAVYYCMLVKRSQRKSTIDFDYWGQGTQVTVSS | high polyreactivity
QDHLVESGGGLVQAGGSLSLSCAASGIIFYGNAMGLSRQAHGKDRELVAAISWSGSSTYYADSVKGRFTISRDNAKNTVYLQMNSLKPEDNAVYYCNKATSSVRYLKYYYWGQGTQVTVSS | high polyreactivity
QDHLVETGGGLVQAGGSLRLSCAASGRTLYINAMGWYRQAPGKERELVAAIRRGGSTYADSVKGRFTISRDNAKNTVYLQMNRLKPEDTAVYYCAADVPSGKYKGDYWGQGTQVTVSS | high polyreactivity
QDKLVDSGGGLVQAGGSLRLSCAASGFIFGKYTMVWYRQAPGKERELVAAINRRGGSTYYADSVKGRFTISRDNAKNTVYLQMNSLKPEDTAVYYCAKDGYSLDRYYWGQGTQVTVSS | high polyreactivity
QDKLVESGGGLVKAGGSLRLSCAASGSIFATYAMVWYRQAPGKERELVAAISKSTDSTYYADSVKGRFTISRDNAKNNVYLQMNSQKPEDTAVYYCAAVQRYKGLQDDSWGQGTQVTVSS | high polyreactivity
QDPLVESGGGVVQAGGSLRLSCAASGSTFSDYAMGWYRQAPGKERELVAAISVSDGSTYYADSVKGRFTISRDIAKNSVYLQMNSLKPEETAVYYCAAEYPYFVYSYFRFDYWGQGTQVTVSS | low polyreactivity
QDQHVDSGGGLVQAGGSLRLSCAASGFIFPQNAMGWYRQAPGKERELVAAISKRGGSTYYADSVKGRFTISRDNAKNTVYLQMNSLNPEDTAVYYCAVRYYFYRPGGYDYWGQGTQLTVSS | high polyreactivity
